Results published in PMC4118958, “Association of BLM and BRCA1 during Telomere Maintenance in ALT Cells” (PLoS ONE, 2014).

Target: BLM helicase, mutated in Bloom's syndrome (human (endogenous in U2OS), UniProt P54132 1-1417)
Assay: cell-based or functional assay

Chain of BLM helicase, mutated in Bloom's syndrome (P54132 whole entry, change not shown): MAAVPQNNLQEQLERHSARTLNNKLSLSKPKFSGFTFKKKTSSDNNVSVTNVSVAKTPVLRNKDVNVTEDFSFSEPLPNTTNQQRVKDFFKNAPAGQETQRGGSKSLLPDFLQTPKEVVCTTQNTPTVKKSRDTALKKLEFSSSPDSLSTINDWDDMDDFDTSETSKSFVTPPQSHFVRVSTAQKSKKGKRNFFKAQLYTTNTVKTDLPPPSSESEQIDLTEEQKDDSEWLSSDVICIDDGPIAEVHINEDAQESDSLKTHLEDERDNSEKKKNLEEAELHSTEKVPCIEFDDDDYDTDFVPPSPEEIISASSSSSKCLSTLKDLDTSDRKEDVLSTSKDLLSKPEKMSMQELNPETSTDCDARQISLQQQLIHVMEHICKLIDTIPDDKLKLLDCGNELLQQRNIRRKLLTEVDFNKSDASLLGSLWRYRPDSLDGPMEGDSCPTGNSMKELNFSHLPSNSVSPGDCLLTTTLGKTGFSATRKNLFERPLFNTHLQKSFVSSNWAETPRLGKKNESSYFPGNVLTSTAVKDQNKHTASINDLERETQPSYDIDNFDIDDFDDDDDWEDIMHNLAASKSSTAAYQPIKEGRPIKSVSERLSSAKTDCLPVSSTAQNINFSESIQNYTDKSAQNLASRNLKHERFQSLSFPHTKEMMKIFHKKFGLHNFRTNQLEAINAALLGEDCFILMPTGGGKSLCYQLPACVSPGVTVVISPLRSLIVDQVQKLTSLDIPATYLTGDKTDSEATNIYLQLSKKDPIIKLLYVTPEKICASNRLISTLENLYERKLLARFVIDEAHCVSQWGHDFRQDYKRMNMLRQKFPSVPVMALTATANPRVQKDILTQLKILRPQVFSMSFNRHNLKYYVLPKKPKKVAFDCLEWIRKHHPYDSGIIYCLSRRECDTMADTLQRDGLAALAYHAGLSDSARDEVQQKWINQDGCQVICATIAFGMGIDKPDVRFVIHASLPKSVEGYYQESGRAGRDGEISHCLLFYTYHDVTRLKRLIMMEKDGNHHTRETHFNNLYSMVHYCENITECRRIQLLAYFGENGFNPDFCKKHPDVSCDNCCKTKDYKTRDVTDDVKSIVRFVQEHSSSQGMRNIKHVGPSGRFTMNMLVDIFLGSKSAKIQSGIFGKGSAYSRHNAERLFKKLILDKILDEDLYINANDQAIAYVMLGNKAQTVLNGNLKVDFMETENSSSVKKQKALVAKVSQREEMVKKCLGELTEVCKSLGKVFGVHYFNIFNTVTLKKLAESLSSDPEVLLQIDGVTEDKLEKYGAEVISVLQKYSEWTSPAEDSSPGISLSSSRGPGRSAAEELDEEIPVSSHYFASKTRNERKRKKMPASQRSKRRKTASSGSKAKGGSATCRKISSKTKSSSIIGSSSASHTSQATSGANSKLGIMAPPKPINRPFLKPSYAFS

B1: BRCA1 tumor suppressor (natural protein, human (endogenous in U2OS), UniProt P38398 1-1863, looked up)
chain: MDLSALRVEEVQNVINAMQKILECPICLELIKEPVSTKCDHIFCKFCMLKLLNQKKGPSQCPLCKNDITKRSLQESTRFSQLVEELLKIICAFQLDTGLEYANSYNFAKKENNSPEHLKDEVSIIQSMGYRNRAKRLLQSEPENPSLQETSLSVQLSNLGTVRTLRTKQRIQPQKTSVYIELGSDSSEDTVNKATYCSVGDQELLQITPQGTRDEISLDSAKKAACEFSETDVTNTEHHQPSNNDLNTTEKRAAERHPEKYQGSSVSNLHVEPCGTNTHASSLQHENSSLLLTKDRMNVEKAEFCNKSKQPGLARSQHNRWAGSKETCNDRRTPSTEKKVDLNADPLCERKEWNKQKLPCSENPRDTEDVPWITLNSSIQKVNEWFSRSDELLGSDDSHDGESESNAKVADVLDVLNEVDEYSGSSEKIDLLASDPHEALICKSERVHSKSVESNIEDKIFGKTYRKKASLPNLSHVTENLIIGAFVTEPQIIQERPLTNKLKRKRRPTSGLHPEDFIKKADLAVQKTPEMINQGTNQTEQNGQVMNITNSGHENKTKGDSIQNEKNPNPIESLEKESAFKTKAEPISSSISNMELELNIHNSKAPKKNRLRRKSSTRHIHALELVVSRNLSPPNCTELQIDSCSSSEEIKKKKYNQMPVRHSRNLQLMEGKEPATGAKKSNKPNEQTSKRHDSDTFPELKLTNAPGSFTKCSNTSELKEFVNPSLPREEKEEKLETVKVSNNAEDPKDLMLSGERVLQTERSVESSSISLVPGTDYGTQESISLLEVSTLGKAKTEPNKCVSQCAAFENPKGLIHGCSKDNRNDTEGFKYPLGHEVNHSRETSIEMEESELDAQYLQNTFKVSKRQSFAPFSNPGNAEEECATFSAHSGSLKKQSPKVTFECEQKEENQGKNESNIKPVQTVNITAGFPVVGQKDKPVDNAKCSIKGGSRFCLSSQFRGNETGLITPNKHGLLQNPYRIPPLFPIKSFVKTKCKKNLLEENFEEHSMSPEREMGNENIPSTVSTISRNNIRENVFKEASSSNINEVGSSTNEVGSSINEIGSSDENIQAELGRNRGPKLNAMLRLGVLQPEVYKQSLPGSNCKHPEIKKQEYEEVVQTVNTDFSPYLISDNLEQPMGSSHASQVCSETPDDLLDDGEIKEDTSFAENDIKESSAVFSKSVQKGELSRSPSPFTHTHLAQGYRRGAKKLESSEENLSSEDEELPCFQHLLFGKVNNIPSQSTRHSTVATECLSKNTEENLLSLKNSLNDCSNQVILAKASQEHHLSEETKCSASLFSSQCSELEDLTANTNTQDPFLIGSSKQMRHQSESQGVGLSDKELVSDDEERGTGLEENNQEEQSMDSNLGEAASGCESETSVSEDCSGLSSQSDILTTQQRDTMQHNLIKLQQEMAELEAVLEQHGSQPSNSYPSIISDSSALEDLRNPEQSTSEKAVLTSQKSSEYPISQNPEGLSADKFEVSADSSTSKNKEPGVERSSPSKCPSLDDRWYMHSCSGSLQNRNYPSQEELIKVVDVEEQQLEESGPHDLTETSYLPRQDLEGTPYLESGISLFSDDPESDPSEDRAPESARVGNIPSSTSALKVPQLKVAESAQSPAAAHTTDTAGYNAMEESVSREKPELTASTERVNKRMSMVVSGLTPEEFMLVYKFARKHHITLTNLITEETTHVVMKTDAEFVCERTLKYFLGIAGGKWVVSYFWVTQSIKERKMLNEHDFEVRGDVVNGRNHQGPKRARESQDRKIFRGLEICCYGPFTNMPTDQLEWMVQLCGASVVKELSSFTLGTGVHPIVVVQPDAWTEDNGFHAIGQMCEAPVVTREWVLDSVALYQCQELDTYLIPQIPHSHY
fold stimulation of BLM helicase activity by 3 nM full-length BRCA1 on a non-telomeric fork substrate: ~1.9 fold | fold stimulation of BLM helicase activity by 3 nM full-length BRCA1 on the fork substrate with two telomeric repeats: ~3.6 fold | initial unwinding rate of BLM (1.2 nM) on the telomeric fork in the presence of 3 nM BRCA1, fold increase: 1.7 fold
